In the DeepSol protein solubility set:

assay: soluble on expression in E. coli; label from the status in PepcDB or PDB records

| Sequence | soluble on expression in E. coli |
| --- | --- |
| MGSDKIHHHHHHMKEIALLAIARYGDLIQTTPLVRALRRAHPGARITAIVEDRFCGILPLLPGIDRTIVLNKQDIAWDIATGDSPLVPYLKMDEFVRKLEEGSYDLLVNITCSRLSAFFASCVTSRRRTGISADEAGERNIVTLWGQYIFSWFNDNIRKYNAINLVDIFTRLGEVPPDGRRVELVATEKGERFADDFLDRHGLRGQRLVGLQLGASEATRIWPAEHFARISDRLQRELGVRTILFGAPVEKHLAGQAMAAMEMPAVDAVGETGIEELYSLVGRCAALVSNDTGTMHFAAAAGVPAVMLCIGPAFFRCTGPYGEGHLALQPDLPCSPCPYSLVCADPVCRDTISPEAVFSACRMILAGADGLGNADFSGVRVYRSSFAPDGYLTWDGLFNVDAWEEEQVKRRESAWKGCFDGSTKGCGAPGDETLRAFWELTGRGIEATEAIIRAARKKPLPVDEIRRLGEKESAIEAEVKLMGYRHEPLAPVTEFLTLMRENITGEELGRIARETRSLYETGRCLAALL | not soluble |
| MGSDKIHHHHHHMKEIDELTIKEYGVDSRILMERAGISVVLAMEEELGNLSDYRFLVLCGGGNNGGDGFVVARNLLGVVKDVLVVFLGKKKTPDCEYNYGLYKKFGGKVVEQFEPSILNEFDVVVDAIFGTGLRGEITGEYAEIINLVNKSGKVVVSVDVPSGIDSNTGKVLRTAVKADLTVTFGVPKIGHILFPGRDLTGKLKVANIGHPVHLINSINRYVITREMVRSLLPERPRDSHKGTYGKVLIIAGSRLYSGAPVLSGMGSLKVGTGLVKLAVPFPQNLIATSRFPELISVPIDTEKGFFSLQNLQECLELSKDVDVVAIGPGLGNNEHVREFVNEFLKTLEKPAVIDADAINVLDTSVLKERKSPAVLTPHPGEMARLVKKTVGDVKYNYELAEEFAKENDCVLVLKSATTIVTDGEKTLFNITGNTGLSKGGSGDVLTGMIAGFIAQGLSPLEASTVSVYLHGFAAELFEQDERGLTASELLRLIPEAIRRLKE | soluble |
| MGSDKIHHHHHHMKEIINLDEMIMLLKTIAESSRLRLLALLYHEDLTVSDFTLVLGQSQSHVLQHLHLLYEAQLVERYQKGRSIYFKLYYGRLGKDIVMAVVSALLEHNRVIAHDLARLKDIKKQYRKQEKKYFLQNVVQWDTLRLFSIADLGVENALREIVGDKPFETMLDISRDTGSVLKLFSGLYTYAVEVVLDSDILHLSVENTTFDLVILHWVLYFLESPEVALHEIAGVLRPHGRLLIVDFVRHEVESSHSYLSHMPFGFSDLQIEQWLKNVGLILEKIICFPPLQNENNERLMVKIWLARDPRLLVDDIKDKKVEFA | not soluble |
| MGSDKIHHHHHHMKEINLASVLVAKRREKGITQDELAAYIGVSKASVSKWETGQSYPDITFLPLLAAYFNISIDELMSYSPQMERSDIAKLYTRLAADFASRPFEDVIAECAALIKKYYSCFPLLVQLVKLYTNHFMLAGTQERQEALLNETVTLCERIQAESGDVQLAKEAVSYQALCSLALQRPQQVLDLLGEGIRPMLPEGMLIAQAYQVMGNIGKAKETLQTELYQYVMVAFQGLLNVLQMATDHFEKAEEAFLRASDLAQIFNMKQLNPNNVILLYALGARMYCANNSHAKAIELLGNYVDTCVGGFFPFELHGDAFFDLIDPWLKDCGAAAPRSEQVIKESMLRDVLMNPAFASLQDDPGYRRLVQKMERFIGR | not soluble |
| MGSDKIHHHHHHMKEKTVAIFNGYYIPHLGGVERYTYNIAKKLTEKGYRVIIITTQHDENLTNEEIQEGIKIYRLPIKNLWKNRYPFLKKNRIYHSLIEKIEAESIDYYVANTRFHLPAMLGVKMAKAKGKEAIVIEHGSSYLTLNNPVLDFMLRKIEQLLIGRVKKDTSLFYGVSNEASEWLKTFDIKAKGVLPNAVAVDEYFNQKIEKDEKKLTISYAGRLIPQMKGVEILLSTFSKLSKERKNLELIIAGDGPLLNEVKRKYSQKNIKFLGYVPYEKVLEIDAKSDVFVLMSRSEGFATAMLEAAMLENVIITTPTVGGARDIMPDETYGYIIENNETKLFETLTKVLDNKEHMRLMQKKISKNVLENFTWEQSAKQFIKVFNELDEK | not soluble |
| MGSDKIHHHHHHMKEYIMSFFNAPVTNKIPTCICSVAGLHTYISTNPQLEELTRKVRAGLGDKQVFRKNKQTLLPYVTPAGIFSYCKEQCMQVPSGLFVIDIDELASTEEAAMWRDRLFADEVLHPVLSFVSPGNQGVKLFIPYRINPFLSVEESFDNALHTAWEYLEWKYELKVDRANADLSRACFLSHDGEAKINNHKY | not soluble |
| MGSDKIHHHHHHMKFSDIISKLEVTNYSLTQNPNNDPEITGMAAIDEATSGTLSYIEGAKFASFIAKTNASALILPQNEAMQAQAQERGIVWMATPEPRLLFAKAIALFYQPYTPTPEIHPTAVIHPTAKIGNDVYIGPHVVIQPGVEIGNGVIIHPNVVIYPGVKIGDRTILHANCTIEERSQIGADCVIHSGAVIGGEGFGFVPTRTGWYKMEQSGYVVLEDRVDIGCNTTIDRPSVGETRVGYDTKIDNLVQIAHGCQIGAGCAIAAQTGMAGGVKLGNRVILAGQVGIANQAKMGDGSTASAQTGILHDVKPGEVVSGTPAIPHKMYLKIAALYSRLPDMYQAFRQSQRQLEEEGKR | not soluble |
| MGSDKIHHHHHHMKFVEIRDLQVTYMGKDKPSIVVDKLDIEEGESVLITGRSGSGKSTLVSVINGVIPHLINAEIKGEVRVFGFDVKSTPIHEISKYVGTLLQDPDTQAFNYTIIDEVAFGVENYMISRDEMIERVEESMKIYGISHLRDREINTLSGGELQRTILASVLAMRPKALILDEPTSNIDPQGTREILELVKTFRSEGISLVLVEHKIERVLPFVDRIIVVEEGKIAVDVRKDEIVDKADFLYSLGLEIPDYMLFLKKNGFRKIDYEYLRKTYTYRPPSRIGGKGEALYASVKVKTKNGIYLINTKISLKQGTITALMGKNGSGKTTLLKVIVGLIDKKRLIVEEEKVIVNGVDLSKTKLVERGKFIAYLPQFFDVMFIKRTVEDEIKFSMKNRGTYDEKRLGEVLKMFSLDAYRKEDPLVLSMGQRRRVAMASVLAGGAKVILMDEPTSGQDWYHRQILGKELLELRDKGYTILVVTHDSRFVDRFADYLLVMNEGKIVLEGKPEEVFIKSLRHGIEPPLEYELGGLIKNEHFS | not soluble |
| MGSDKIHHHHHHMKIDLIISADDIKEEKVKNKTAVVIDMLRATSVITTALNNGCKRVVPVLTVEEALKKVKEYGKDAILGGERKGLKIEGFDFSNSPMEYTEDVVKGKTLIMTTTNGTRAIKGSETARDILIGSVLNGEAVAEKIVELNNDVVIVNAGTYGEFSIDDFICSGYIINCVMDRMKKLELTDAATTAQYVYKTNEDIKGFVKYAKHYKRIMELGLKKDFEYCCKKDIVKLVPQYTNGEIL | soluble |
| MGSDKIHHHHHHMKIFITGATGLIGSNLIPLLLEKEYQITALVRDMEKARHQLPNQVQLVKALSHYENFNDFDGVINLAGAPIFAQYWTAGYKTELINSRLNLTENLTALINNSNKPPHCFISASATGYYGDQGNNLITEKSLSGNQFTAQLCQQWENIALQANSRVCLLRTGMVFSEKGGALTKILPIYRYGVGGKLGTGKQFWAWISLQDMLQAILFLLENAQCEGAFNLVAPKPIQNKDFNCQLGAWLKRPYLATVPKFLLNLLLGERATLLLDSQNVIPQKLLEAGFHFSTPTFSDFLHSIKK | not soluble |
| MGSDKIHHHHHHMKIGVLSQFPELYSTRRLVEACESRGHEAWVINPINCYMNINSVKPSIHLEGEEVPMFDAIIPRIHASVTFYGCAVVRQFEMMGVFAANDSISIARSRDKLRALQLLSRKGIGMPVTGFANKPNNIPDLINMVGGAPLVIKLLEGTQGIGVVLAETRKAAESVIEAFLGLKANIMVQEYIKEANGSDIRCFVVGDKVVAAMRRQGPEGDFRSNLHLGGSAEPVKITPQERKSAVAAAKAMGLVVAGVDILRSARGPLVLEVNSAPGIEGIEQATGIKVAEPIVEYIEKVVAARRANHQVIA | not soluble |
| MGSDKIHHHHHHMKILIDATAALMGGGQTYLINLLNYTEILEHDIIILSPKKLTLPSIQNIHRIDVDKSLENPFIRAVWMRRYLPDLIKERKVDILFCPGGLITKGIPSNCVKVTMFRNMIPFDLKQRVKYPLGYMRFRNWLLERLLLDSMIEADLVIFISEYASKVIKKRAKKKLRNTVIIPHGLSAEFRIFDKKAIPRPQWLPAEDYLLYVSILDVYKAQIELIQGFALLKKWRQTSEKLLLVGPDEERSYYTKMIKKEIVKHGLQNDVIITGPVPYNELPALYYHAKVNIFASECENCPNILLEALGAGRPTLVSDCEPMPEFGGDSVEYFDPTSPEDFANSIIRFIDDENKMKELAKKAGERSLLFDWEKVGRLTWQSIENIYNSKTINM | not soluble |
| MGSDKIHHHHHHMKKASTLPLFERLVQHDRGGPISCHVPGHKQGALFHKDACSYFQSILSLDVTELTGLDDLHDPRGVIAEAQALTARYVGAEATCFLVNGSTVGNLAMILGTLEPGDTVFVQRDSHKSVMNGLAMARVHPIFLSPSYDERTQLPTGITEQTLKQALIEHPNGKALILTYPSYYGVARSIRPLVQMAKEAGLYVLVDEAHGAHFPVGDPFPKQALEQGADVVVQSAHKTLPALTMGSYLHFAHGLHSKIKDSIREQLQILQSSSPSYPILASLDAARGFLEDLTNVKDTLDSIAEMNRRIEQVERLSVATFSPLPTDPLKTVITVEGATGFALQTELEKEGIYSELADDRHVLLMWGLTPLQKVRQEEIIDKMCRATKRLPALEQISKGCPLSLSWQAHTSLDLSYDEQKRYSIEEVAVEEAVGKVSGATVIPYPPGVPLLLKGEKITEPLIAQFQQLQEAGARFQGRPSEQQGLYVFTLEAMT | not soluble |
| MGSDKIHHHHHHMKKIVVLGGGPGGLVAAYNLARLLRGKAEITLIDKTGYHLFPPSLLWVMVGQREPEDIMRPLSKLEKHGIKVVTASVESIDPDNNKVATSGGEFEYDYLVVSLGSTPRPELMKADDTVCSPWTVEGALDCRRKLAGFKSGRIIVGAWSWPYKCPPAPFETAFLVKYLLEQRGGDAQVTVVHFWKKPMEPFGPTMAEAFQSFLDMYGVGFKGGVEPMEARGGRLVASSGEEIEYDLAVFAPPHEPPKPVAESPLGDESLGGYMRVDKRTLRSPRYGNVFGVGDIIAPSLGLGMAGIFAHFQAEYVASQIADEILGTYMGEHYNMSGVCVMDLGYAGAAVYCDFSKKVMGEAEYPDCVILGGMRAFRPLKYAFERYWLEKWFT | not soluble |
| MGSDKIHHHHHHMKKLFMSEYLNYVFQKKVWIVENIYMIKIMQLYYSSYNKKFISHTFFTDAIKNSSFPIFLNYVNNLNDKILYHSQVHGVKHILNVTFFSFLIACNENMSANDMGILLETALYHDIGRDDDMEDSDHGHRGAKKILMHISDNKMDMIIPAVIHAHSLLDEEAYQIFRQYNIEKSQYARYSKILSIIKDADALDRFRLRPNSLNPEYFRIDFSKILISLACVLSKVEWHE | not soluble |
| MGSDKIHHHHHHMKKQNIAGFSKVDDTANPQDFVSYLDAISSLNSIQKYKQQTFTRLEIQAGDRILDVGCGIGDDVRSLAVKVGNAGEVVGIDRSETMVKEAQSRSADLGLPVAYYVGDAEKLEFPDCTFDACRSDRTFQHLLNPRQALTEIVRVTRCGGRVVVSDPDWETLVIDTGDRALTRKILNFHCDSCVNGWIGRQLPTLFQEVGLHKINVDTYTLILTDCTLADKHLGVINAAMKAQQAGLISIAEAANWITNLEAASQAGRFFCAITGFLAFGCKP | not soluble |
| MGSDKIHHHHHHMKKSVMLLVCLLGLSACSTKFSYRFLDWAIGWEQEDYVTLDKTQQKAFDTLVEKMVFWHQSKELAHYVVQLKEVENLIKTNELTPLLWAEHVDIAKRHWFRVFEFAMPELLPIIMSLTDSQVKQILTKLREDEQALVKEFAGKSPEQLQKDADKRLQKQFEDWLGSVSAEQKSLIHQYNQQRLSTLDMWLEYRHEWLRQFEVALGQRADKVLLTERLTLLMTQPDELKSEQHKAFLRQNTEAFGTLLLAMNGSLSAKQSKHFYKKLGKLIQDLTELNQEALEKEFKSMKALST | not soluble |
